Among the data in patent US20150225704 are JNK3 phosphorylation values, retold here.

This data set concerns the target myc-tagged full-length palmitoyl acyl transferase zinc-finger DHHC type containing 17 (zD17) (UniProt Q8IUH5).

myc-tagged full-length palmitoyl acyl transferase zinc-finger DHHC type containing 17 (zD17), sequence (Q8IUH5 whole entry): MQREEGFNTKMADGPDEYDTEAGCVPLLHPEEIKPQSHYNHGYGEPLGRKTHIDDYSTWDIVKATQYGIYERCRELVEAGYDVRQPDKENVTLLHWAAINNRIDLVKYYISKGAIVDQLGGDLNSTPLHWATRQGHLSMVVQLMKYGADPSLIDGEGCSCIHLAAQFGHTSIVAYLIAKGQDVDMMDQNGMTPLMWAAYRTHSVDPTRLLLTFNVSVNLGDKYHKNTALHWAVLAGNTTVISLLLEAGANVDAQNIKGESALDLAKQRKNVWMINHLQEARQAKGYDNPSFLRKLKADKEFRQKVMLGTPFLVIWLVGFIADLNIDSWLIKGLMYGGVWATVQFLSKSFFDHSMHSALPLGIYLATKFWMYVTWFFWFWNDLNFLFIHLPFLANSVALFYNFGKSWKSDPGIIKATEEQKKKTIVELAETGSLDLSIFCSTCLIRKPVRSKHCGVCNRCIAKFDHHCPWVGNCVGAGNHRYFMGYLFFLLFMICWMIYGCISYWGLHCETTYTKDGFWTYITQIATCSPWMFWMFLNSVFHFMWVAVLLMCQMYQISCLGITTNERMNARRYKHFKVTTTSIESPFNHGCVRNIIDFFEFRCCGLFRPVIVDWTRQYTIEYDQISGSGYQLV

As for FLAG-kiMKK7 (kinase-inactive MKK7), the JNK3 phosphorylation entry was “resulting in attenuated JNK3 phosphorylation”.
